# Measurements as given in the nanobody polyreactivity screen of Harvey et al. (2022).
# Test: yeast display, Sf9 membrane polyspecificity reagent, FACS + sequencing; frameworks hold sequencing errors
# Outline: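 Galactose-induced (36–48 hours) yeast carrying a synthetic nanobody display library were exposed to 10% biotinylated, detergent-solubilized Sf9 membrane reagent at 4 °C for 1 hour. FACS followed streptavidin microbead enrichment, using low and high (top ~1%) gates for expression (anti-HA) and reagent binding (streptavidin). Colony PCR, MiSeq 2 × 250 sequencing and CDR-length filtering followed. Labels for polyreactivity reflect the gate of origin.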
row,Sequence,polyreactivity (PSR sort gate)
1,QVQLVESGGGLVQAGGSLRLSCAASGRTFDSYAMGWYRQAPGKERELVAAISRAGGTNYADSVKGRFTISRDNAKLTVYLQMNRLKPDDTEVYYCAVRQAVYGLRSDFYYWGQGSQVTVSS,high polyreactivity
2,QVHLVESGGGLVQAGGSLRLSCAASGITFDEYTMGWYRQAPGKERELVAAIDSDGSTTYADSVKGRFTISRDNAKNTVYLQMNSLKPEDSAVYYCNAEHGDFSWHYLLYDYDYWGPGTQVTVSS,low polyreactivity
3,QVQLVESGGGLVQAGGSLRLSCAASGSTFWTNAMGWYRQAPGKERELVAGITDTDNHELRRLCEGRFTISRDNAKNTVYVQMNSLKPEDTAVYYCNADDTYYPLGGITGYDYWGQGTQVTVSS,low polyreactivity
4,QVQLVESGGGVVQAGGSLRLSCAASGSTFGYYAMGWYRQAPGKERELVAAISQGAGRTYFADSVKGRFTISRDIAKNTVYLQMNSLKPEDTAVYYCAGSVTVHRWAYGYCGQGTQVTVSS,high polyreactivity
5,QVQLVESGGGLVQAGGSLRLSCAASGRTFRYYSMGWYRQAPGKERELVAAISSRGNTYYADSVKGRFTISRDNAKNTVYLQMNSLKPEDTAVYYCAARNVVTGYRYDYWGHGTQVTVSS,high polyreactivity
6,QVQLVESGGGLVQAGGSLRLSCAASGFTFDWNAMGWYRQAPGKERELVAAISSSTGRTYYADSVKGRFTISRDNAKNTVYLQMNSLKPEDTAVYYCAASLGGYGERYYYWGQGTQVTVSS,high polyreactivity
7,QVQLVESGGGLVQAGGSLRLSCAATGSILNYYAMGWYRQAPGKERELVATISSGGNTHYADSVKGRFTISRDNAKNTVYLQMNSLKPEDTAVYYSAAVASKHWGRDYWGQGTQVTVSS,low polyreactivity
8,QVQLVESGGGLVQAGGRLRLSCAASGITFTVFAMGWYRQAPGKERELVAAISQSGGSTYYADSVKGRFTISRDNAKNTVYLQMNILNPEDTAVYYCAKTLPSNGHYDYWGQGTQVTVSS,low polyreactivity
9,QVQLVESGGGLVQAGGSLRLSCAASGRIILDYAMGWYRQAPGKERELVAAITWRGGSTNYADSVKGRFTISRDNAKNTVYLQMNSLKPEDTAVYYCNADPDDQYDYWGQGTQVTVSS,low polyreactivity
10,QVQLVESGGGLVQAGGSLRLSCAASGRIFYSNDLGWYRQAPGKERELVAAITSSGASTYYADSVKGRFTISRDNEKNTVYLQMNSLKPEDTAVYYCNVDIGVYAYESDYWGQGTQVTVSS,low polyreactivity
11,QVQLVESGVGLVQAGGSLRLSCAASGSIFQSYDMGWYRQAPGKERELVAAISWSGSTTYYADSVKGRFTISRDNAKNTVYLQMNSLKPEDTAVYYCAVDSNPPDWWAVIYGFWGQGTQVTVSS,low polyreactivity
12,QVQRVESGGGLVQAGGSLRLSCAASGGIFDRYAMGWYRPAPGKERELVAVISGSVNTYADSVKGRFTISRDNAKNTVYLQMNSLKPEDTAVYYCATQFEGPSGFNYWGQGTQVTVSS,low polyreactivity
13,QVQLVESGGGLVQAGGSLRLSCAASGSILVDNAMASYRQAPGKERELVARITGSGGSTYYADSVKGRFTISRDNAKNSVYLQMHILKPEDTAVYYCAARRVNAGWTYGLRGNYWGQGTQVTVSS,low polyreactivity
14,QVHLVESGGGLVQAGGSLRLSCDATGFTFQEYAMGWYRQAPGKERELVAAISTSGDSTYYADSVKGRFTISRDNAKNTVYLQMKSLKPEDNAVYYCATAYEDLDAGVLYDYWGQGTQVTVSS,low polyreactivity
15,QVQLVESGGGLVQAGGSLRLSCAASGSIFGGNAMGWYRQAPGKERELVAAITTGDGSTYYADSVKGRFTISRDNAKNTVYLQMNSLKPEDTAVYYCAADIVHDRFDYWGQGTQVTVSS,low polyreactivity
16,QVQLVESGGGLVQAGGSLRLSCAASGSTLRPYAMGWYRQAPGKERELVAAISKSGASTYYADSVKGRVTISRDNANNTVYFQMNSLKPEDTAVNYCNAGRGTWETLYGYDYWGQGTQVTVSS,high polyreactivity
17,QVQLVESGGGLVQAGGSLRLSCAASGSTFSSYAMGWYRQAPGKERELVARITSGDSTYYADSVKGRFTISRDNAKNTVYLQMNSLKPEDTAVYYCNAVAYGRTYDYWGQGTQVTVSS,high polyreactivity
18,QIQLVESGGGLVQAGGSLRLSCAASGFTFYWYAMGWYRQAPGKEREFVAAIDQSGGSTYYADSVKGRFTISRDNAKNTVYLQMNSLKPEDTAVYYCAARYILWDGDSWTEFDYWGQGTQVTVSS,low polyreactivity
19,QVQLVESGGGLVQAGGSLRLSCAASGRIFRYYAMGWYRQAPPKERELVAAIRWSGGRTYYADSVKGRFTISRDNAKNTVYLQMNSLKPEDTAVYYCAADSPYKMDYWGQGTQVTVSS,high polyreactivity
20,QVQLVESGGGLVQAGGSLRLSCAASGRILGSYAMGWYRQAPGKERELVAGISWRGGRTYYADSVKGRFTISRDNAKNTVYLQMNSLKPEDTAVYYCATRSSSRKYGYWGQGTQVTVSS,high polyreactivity
21,QVQLVESGVGLVQAGGSLRLSCAASGFTFDDNAMGWYRQAPGKERDFVASITNSTGSTYADSVKGRFTISRDNAKNTFYLQMNSLKPEDTAVDYCAVDNISNWAVENDYWGQGTQVTVSS,low polyreactivity
22,QVQLVDSGAGLVQAGGSLSLTCAASGYTFYANAMGWYRQAPGKERELVAGINRSGSTYYADSVKGRFTISRDNAKNTVYLQMNSLKPEDTAVYYCATAWHRGVRGRTSGAFDYWGQGTQVTVSS,high polyreactivity

row,Sequence,polyreactivity (PSR sort gate)
1,QVQLVESGGGLVQARGSLRLSCAASGLTSRYYAMGWYRQAPGKERELVAAISSRGGRTYYADSVKGPFTISRDNAKNTVYLQMNSLQPEDTAVYYCYAAAGAYSFLSTYNRGEEYWGQGTQVTVSS,high polyreactivity
2,QVQLGESGGGLVQAGGSLRLSCAASGSTFVGSAMGWYIQAPGKDRELVAAISYSGGSTYYADSVKGRFTISRDNAKNTVYLQMNSLKPEDTAVYYCAAEWSRHYYYGPRYHYWGQGTQVTVSS,low polyreactivity
3,QVQLVESGGGLVQAGGSLRLSCAASGRIFNWYVMGWYRQAPGKERELVAAINSGGITKYADSVKGRFTISRDNAKNTVYLQMNSLKPEDTAVYYCAAYYRRYDYDYWGQGTQVTVSS,high polyreactivity
4,QVQLVESAVGLVQAGVSLRLSSAASGFIYYAYALGWYRQAPGKERELVAGISDSGASTYADSVKGRFTISRDNAKNTVYLQMNSLKPEDTAVYYCATTGYLSTKDYDEYGYWGQGTQVTVSS,low polyreactivity
5,QVQLVESGGGLVQAGGSLRLSCAASGFTLGWYAMGWYRQAPGKERELVAAISRSGGSTYYADSVKGRFTISRDNAKNTVYLQMNCLKPEDTGVYYCAAEVNYAGRAVWSYYWGQGTQVTVSW,high polyreactivity
6,QVQLVESGGGLVQAGGSLRLSCAASGSIFPGYAMAWYRQAPGKERELVAAISRSGGITYYADSVKGRFTISRDNAKNTVYLQMNSLKPEDTSVYYCAKTLPSNGHYDYWGQGTQVTVSS,low polyreactivity
7,QVQLVESGGGLVQAGCSLRLSCAASGSTFTTNAMGWYRQAPGKEREFVAAITSSGGSTYYADSVKGRFTISRDNAKNTVYLQMNSLKPEDNAVYYCNADGDPSQKLFGRSYDYWGQGTQVNVSS,low polyreactivity
8,QVQLVESGGGLVQAGGSLRLSCAASGLIFNIYAMGWYRQAPGKERELVAAISKSGGSTYYADSVKGRFTISRDNAKNTVYLQMNSLKPEDTAVYYCAVRSMRVDKYGYWGQGTQVTVSS,high polyreactivity
9,QVQLVESGGGLVQAGGSLRLSCAASGIIFAGNAMGWYRQAPGKERELVAAITRSTGSTYYADSVKGRFTISRDNAKNTVYLLMNSLKPEDTEVYYCNAGHFAHHHGYYRSKYDYWGQGTQVTVSS,low polyreactivity
10,QVQLVESGGGLVQAGGSLRLSCAASGSIFYPNVMGWDRQAPGKERELVAAIRTSGGSTYYADSVKGRFTISRDNAKNTVYLQMNSLKPEDTAVYYCAADYIYVKYEYWGQGTQVTVSS,high polyreactivity
11,QVQLVESGGGLVQAGGSLRLSRAASGFTITYNAKGWSRPAPGKESELVAAITGDGGSTYYADSVKGRFTISRDNAKNTVYLQMNSLKPEDTAVYYCAAYVVWGGTDGRYDYWGQGTQVTVSS,low polyreactivity
12,QVQLVESGGGLVQAGGRLRLTCAASGINFRSYAMGWYRQATGKERELVAGISLSGGSTYYADSVKGRFTISRDNAKNSDYLQMNSLKPEDTAVYYCATRYHYFGALRYGYCGQGTQVTVSS,high polyreactivity
13,QVQLVESGGGLVQAGGSLRLSCAASGNTFNGYTMGWYRQATGKERELVAVISSYGGRTNYADSVKGRFTISRDNAKITLYLQLNSLKTEVTAVYYCAARSSRLPHIYGYWGQGTQVTVSS,low polyreactivity
14,QVQLVESGGGLVQAGGSLRLSCSASGIIFVRNAMGWYRQAPGKERELVAAITWRGSTYYADSVKGRFTISRDNAKNTVYLQMNSLKPEDTAVYYCAAVKPHYTSFRDYYWGQGTQVTVSS,high polyreactivity
15,QVQLVESGGGLVQAGGSLRLSCAASGSTFYYYAMGWYRQAPGKERELVATISSGSSTNYADSVKGRFTISRDNAKNTVYLQMNCLKPEDTAVYYCAADRWYITLSIDATISYDYWGQGTQVTVSS,low polyreactivity
16,QVQLVESGGGLVQAGGSLRLSCAASGITGHNAMGWYRQAPGKERELVARISSGGRTNYADSVKGRFTISRDNAKNTVYLKMNSLKPEDTAVYYCAAGFRVGSFLRYNYWGQGTKVTVSS,high polyreactivity
17,QVQLVESGGGLVQAGGSLRLSCAASGRIFDLNAMGWYRQAPGKERELVASITTSTGSTYYADSVKGRFTISRDNAKNTVYLQMNSLKPEDTAVYYCAADKSTHPFPSDPGYGYWGQGTQVTVSS,low polyreactivity
18,QVQLVESGGGLVQAGGSLRLSCAASGSTFSYYAMGSYRQAPGKERELVADISWSGGSTYYADSVKGRFTISRDNAKNTVYLQMNSLKPEDTAVYYCAARGYVRWYNRYDYWGQGTQVTVSS,low polyreactivity
19,QVQLVESGGGLVQAGGSLRLSCAASGSIFRFYAMGWYRQAPGKERELVAGISRRGGTTYYADSVKGRFTISRDNAKNTVYLQMNSLKPEDTAVYYCAKRSFGYKSRPAFNYWGQGTQVTVSS,high polyreactivity
20,QVQLVESGGGLVQAGGSLRLSCAASGFIVDWYTRGWYRQAPGKERELVARISSDGSTTYADSVKGRFTISRDNAKNTVSVQMTSLKPEDTAVYYCAADVTYPGLKYIFDDWGQGTQVTVTS,low polyreactivity
21,QVQLVESGGGLVQAGGSLRLSCAASGFIFVYYAMGWYRQAPGKERELVAAITSDVNTYYADSVKGRFSISRDNAKNTVYLHMNSLKPEDTAVDYCNADADDYRDYQDYDYWGQGSQVTVSS,low polyreactivity
